Test results as given in US20210253718A1, “FRIZZLED5 PROTEIN-BINDING AGENTS” (Modmab Therapeutics Corporation, priority 2016, published 2021).

B1: Fab-2916: anti-FZD5 Fab with antibody variable region Fv-2916; CDR SEQ ID NOs: 35, 36, 55, 94, 131, 167 (antibody, V domains shown)
VH: EVQLVESGGGLVQPGGSLRLSCAASGFNISYSSIHWVRQAPGKGLEWVASIYPSYSYTYYADSVKGRFTISADTSKNTAYLQMNSLRAEDTAVYYCARYGYYGMDYWGQGTLVTVSS
VL: DIQMTQSPSSLSASVGDRVTITCRASQSVSSAVAWYQQKPGKAPKLLIYSASSLYSGVPSRFSGSRSGTDFTLTISSLQPEDFATYYCQQWYHYPYLITFGQGTKVEIK
B2: Fab-2924: anti-FZD5 Fab with antibody variable region Fv-2924; CDR SEQ ID NOs: 35, 36, 63, 101, 139, 153 (antibody, V domains shown)
VH: EVQLVESGGGLVQPGGSLRLSCAASGFNISYSYIHWVRQAPGKGLEWVASIYSYYSSTSYADSVKGRFTISADTSKNTAYLQMNSLRAEDTAVYYCARGALDYWGQGTLVTVSS
VL: DIQMTQSPSSLSASVGDRVTITCRASQSVSSAVAWYQQKPGKAPKLLIYSASSLYSGVPSRFSGSRSGTDFTLTISSLQPEDFATYYCQQWYSGHSLITFGQGTKVEIK
B3: Fab-2927: anti-FZD5 Fab with antibody variable region Fv-2927; CDR SEQ ID NOs: 35, 36, 66, 104, 142, 174 (antibody, V domains shown)
VH: EVQLVESGGGLVQPGGSLRLSCAASGFNIYYSSMHWVRQAPGKGLEWVASIYPSYGYTSYADSVKGRFTISADTSKNTAYLQMNSLRAEDTAVYYCARYGYYGFDYWGQGTLVTVSS
VL: DIQMTQSPSSLSASVGDRVTITCRASQSVSSAVAWYQQKPGKAPKLLIYSASSLYSGVPSRFSGSRSGTDFTLTISSLQPEDFATYYCQQWGSHGYLITFGQGTKVEIK
B4: Fab-2932: anti-FZD5 Fab with antibody variable region Fv-2932; CDR SEQ ID NOs: 35, 36, 71, 108, 147, 153 (antibody, V domains shown)
VH: EVQLVESGGGLVQPGGSLRLSCAASGFNISYSYMHWVRQAPGKGLEWVASIYSSYSSTSYADSVKGRFTISADTSKNTAYLQMNSLRAEDTAVYYCARGALDYWGQGTLVTVSS
VL: DIQMTQSPSSLSASVGDRVTITCRASQSVSSAVAWYQQKPGKAPKLLIYSASSLYSGVPSRFSGSRSGTDFTLTISSLQPEDFATYYCQQWYGSFALITFGQGTKVEIK
B5: Fab-2919: anti-FZD5 Fab with antibody variable region Fv-2919; CDR SEQ ID NOs: 35, 36, 58, 97, 134, 155 (antibody, V domains shown)
VH: EVQLVESGGGLVQPGGSLRLSCAASGFNISYSYIHWVRQAPGKGLEWVASIYSSSGSTSYADSVKGRFTISADTSKNTAYLQMNSLRAEDTAVYYCARGAIDYWGQGTLVTVSS
VL: DIQMTQSPSSLSASVGDRVTITCRASQSVSSAVAWYQQKPGKAPKLLIYSASSLYSGVPSRFSGSRSGTDFTLTISSLQPEDFATYYCQQWYSSGHVLITFGQGTKVEIK
B6: Fab-2934: anti-FZD5 Fab with antibody variable region Fv-2934; CDR SEQ ID NOs: 35, 36, 73, 110, 149, 155 (antibody, V domains shown)
VH: EVQLVESGGGLVQPGGSLRLSCAASGFNISYSYMHWVRQAPGKGLEWVASIYSSSGSTSYADSVKGRFTISADTSKNTAYLQMNSLRAEDTAVYYCARGAIDYWGQGTLVTVSS
VL: DIQMTQSPSSLSASVGDRVTITCRASQSVSSAVAWYQQKPGKAPKLLIYSASSLYSGVPSRFSGSRSGTDFTLTISSLQPEDFATYYCQQWYHYGLITFGQGTKVEIK
B7: Fab-2921: anti-FZD5 Fab with antibody variable region Fv-2921; CDR SEQ ID NOs: 35, 36, 60, 98, 136, 162 (antibody, V domains shown)
VH: EVQLVESGGGLVQPGGSLRLSCAASGFNISYYYIHWVRQAPGKGLEWVASIYPSSGSTSYADSVKGRFTISADTSKNTAYLQMNSLRAEDTAVYYCARGAMDYWGQGTLVTVSS
VL: DIQMTQSPSSLSASVGDRVTITCRASQSVSSAVAWYQQKPGKAPKLLIYSASSLYSGVPSRFSGSRSGTDFTLTISSLQPEDFATYYCQQWYAGSLITFGQGTKVEIK
B8: Fab-2920: anti-FZD5 Fab with antibody variable region Fv-2920; CDR SEQ ID NOs: 35, 36, 59, 98, 135, 170 (antibody, V domains shown)
VH: EVQLVESGGGLVQPGGSLRLSCAASGFNISYYYIHWVRQAPGKGLEWVASIYPSSGSTSYADSVKGRFTISADTSKNTAYLQMNSLRAEDTAVYYCARGGMDYWGQGTLVTVSS
VL: DIQMTQSPSSLSASVGDRVTITCRASQSVSSAVAWYQQKPGKAPKLLIYSASSLYSGVPSRFSGSRSGTDFTLTISSLQPEDFATYYCQQWFAGALITFGQGTKVEIK
B9: Fab-2933: anti-FZD5 Fab with antibody variable region Fv-2933; CDR SEQ ID NOs: 35, 36, 72, 109, 148, 177 (antibody, V domains shown)
VH: EVQLVESGGGLVQPGGSLRLSCAASGFNLYSSYMHWVRQAPGKGLEWVASIYSSYGYTSYADSVKGRFTISADTSKNTAYLQMNSLRAEDTAVYYCARTVRGSKKPYFSGWAMDYWGQGTLVTVSS
VL: DIQMTQSPSSLSASVGDRVTITCRASQSVSSAVAWYQQKPGKAPKLLIYSASSLYSGVPSRFSGSRSGTDFTLTISSLQPEDFATYYCQQFWWYASWLFTFGQGTKVEIK

Experiments:
Test in all cases: Immunofluorescence of anti-FZD5 Fab binding to CHO cells overexpressing Frizzled CRD
Design in all cases: key: −: no binding; +: very weak binder; ++: weak binder; +++: good binder; ++++: very good binder
FZD3 CRD = target: T1, FZD3 CRD (Homo sapiens, UniProt Q9NPG1)
T1 construct: CRD of FZD1, FZD2, FZD3, FZD4, FZD5, FZD6, FZD7, FZD8, FZD9 or FZD10; GPI anchor signal (C); expressed in transfected cells; host or cells: CHO cells, lentiviral pLenti-puro
T1 sequence (Q9NPG1 23-136 limits assumed): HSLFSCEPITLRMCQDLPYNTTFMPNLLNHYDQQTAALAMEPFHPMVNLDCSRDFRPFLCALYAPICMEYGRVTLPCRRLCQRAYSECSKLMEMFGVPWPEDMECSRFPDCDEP
In short: (§1)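 CHO panel, 10 lines, each w/ one human FZD CRD-myc-GPI (lentiviral). Anti-FZD5 Fabs applied; surface binding scored by IF, cross-checked by FACS.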

FZD9 CRD = target: T2, FZD9 CRD (Homo sapiens, UniProt O00144)
T2 construct: G35-A161; GPI anchor signal (C); expressed in transfected cells; host or cells: CHO cells, lentiviral pLenti-puro
T2 sequence (O00144 35-161): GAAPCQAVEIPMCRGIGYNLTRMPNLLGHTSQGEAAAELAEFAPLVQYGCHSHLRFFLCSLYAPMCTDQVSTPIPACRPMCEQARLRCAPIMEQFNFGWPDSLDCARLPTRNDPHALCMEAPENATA
In short: as §1

FZD10 CRD = target: T3, FZD10 CRD (Homo sapiens, UniProt Q9ULW2)
T3 construct: 30-156; GPI anchor signal (C); expressed in transfected cells; host or cells: CHO cells, lentiviral pLenti-puro
T3 sequence (Q9ULW2 30-156): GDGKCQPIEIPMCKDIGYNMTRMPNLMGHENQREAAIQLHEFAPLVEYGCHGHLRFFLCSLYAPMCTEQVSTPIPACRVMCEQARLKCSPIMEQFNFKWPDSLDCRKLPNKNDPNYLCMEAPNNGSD
In short: as §1

FZD1 CRD = target: T4, FZD1 CRD (Homo sapiens, UniProt Q9UP38)
T4 construct: D112-P238; GPI anchor signal (C); expressed in transfected cells; host or cells: CHO cells, lentiviral pLenti-puro
In short: as §1

FZD4 CRD = target: T5, FZD4 CRD (Homo sapiens, UniProt Q9ULV1)
T5 construct: E42-V167; GPI anchor signal (C); expressed in transfected cells; host or cells: CHO cells, lentiviral pLenti-puro
T5 sequence (Q9ULV1 42-167): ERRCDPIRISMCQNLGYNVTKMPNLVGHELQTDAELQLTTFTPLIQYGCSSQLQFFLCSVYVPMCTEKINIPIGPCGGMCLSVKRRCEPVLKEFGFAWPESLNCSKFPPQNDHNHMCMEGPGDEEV
In short: as §1

| Molecule | Immunofluorescence binding, Frizzled CRD overexpressed on CHO cells: FZD3 (FZD3 CRD) | Immunofluorescence binding, Frizzled CRD overexpressed on CHO cells: FZD9 (FZD9 CRD) | Immunofluorescence binding, Frizzled CRD overexpressed on CHO cells: FZD10 (FZD10 CRD) | Immunofluorescence binding, Frizzled CRD overexpressed on CHO cells: FZD1 (FZD1 CRD) | Immunofluorescence binding, Frizzled CRD overexpressed on CHO cells: FZD4 (FZD4 CRD) |
| --- | --- | --- | --- | --- | --- |
| B1 | − | − | − | ++++ | − |
| B2 | − | − | − | − | − |
| B3 | − | − | − | +++ | − |
| B4 | − | − | − | − | − |
| B5 | − | − | − | − | − |
| B6 | − | − | − | − | − |
| B7 | − | − | − | − | − |
| B8 | − | − | − | − | − |
| B9 | − | − | − | + | +++ |
